In patent US20240409598A1, “PEPTIDE INHIBITORS OF INTERLEUKIN-23 RECEPTOR” (Janssen Biotech, Inc., priority 2021, published 2024):
*1 amine or outer side, *2 acyl side, *3 side chain or, on linkers, in order; H or OH if unused. Bridges are numbered along the chain shown (N, C = ends). Primed or numbered codes have the meaning given here. [ ]: non-standard residue; d: D form. AEF(G) = 4-(2-guanidinoethoxy)phenylalanine, N=C(N)NCCOc1ccc(C[C@H](N[*:1])C(=O)[*:2])cc1; Trp(7-Me) = Cc1cccc2c(C[C@H](N)C(=O)O)c[nH]c12; 3Pal(5-Me) = Cc1cncc(C[C@H](N)C(=O)O)c1; 2Nal = N[C@@H](Cc1ccc2ccccc2c1)C(=O)O; 3Pal = N[C@@H](Cc1cccnc1)C(=O)O; Pen = CC(C)(S)[C@H](N)C(=O)O; αMeC = C[C@](N)(CS)C(=O)O; AEF′ = not defined here; Abu = CC[C@H](N)C(=O)O; THP = not defined here; Sar = CNCC(=O)O

T1: interleukin-23 receptor (IL-23R) (UniProt Q5VWK5 24-629, limits assumed)
T1 sequence (looked up): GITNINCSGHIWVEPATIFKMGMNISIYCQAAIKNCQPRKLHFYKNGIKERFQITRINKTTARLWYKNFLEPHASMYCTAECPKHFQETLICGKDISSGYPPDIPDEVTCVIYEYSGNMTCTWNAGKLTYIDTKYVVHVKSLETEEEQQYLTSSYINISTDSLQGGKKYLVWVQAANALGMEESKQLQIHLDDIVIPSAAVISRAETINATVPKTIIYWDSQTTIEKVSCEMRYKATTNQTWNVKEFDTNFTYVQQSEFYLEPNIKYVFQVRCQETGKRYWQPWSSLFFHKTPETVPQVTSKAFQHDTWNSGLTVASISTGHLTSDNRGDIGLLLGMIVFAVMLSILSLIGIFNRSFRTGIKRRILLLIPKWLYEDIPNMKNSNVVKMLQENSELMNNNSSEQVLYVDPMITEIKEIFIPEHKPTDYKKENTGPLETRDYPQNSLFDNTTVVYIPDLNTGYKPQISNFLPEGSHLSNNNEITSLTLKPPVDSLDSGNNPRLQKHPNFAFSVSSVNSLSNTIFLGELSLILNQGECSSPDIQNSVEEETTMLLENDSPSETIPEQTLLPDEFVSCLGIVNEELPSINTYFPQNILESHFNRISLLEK


What was measured:
[1] = tested on: peripheral blood mononuclear cells (PBMCs); experiment: PBMC pSTAT3 Assay; format: cell-based; settings: PBMCs from healthy donors; IL-23 5 ng/ml; 30 minutes stimulation
Experimental: Cryopreserved peripheral blood mononuclear cells (PBMCs) from healthy donors were thawed and washed twice in ImmunoCult-XF T cell expansion medium (XF-TCEM) supplemented with CTL anti-aggregate wash. The cells were counted, resuspended at 2×10^5 cells per mL XF-TCEM supplemented with penicillin/streptomycin and 100 ng/ml […] (BioLegend, 579404), and cultured in tissue culture flasks coated with anti-CD3 (eBioscience, 16-0037-85 or BD Pharmingen, 555329) at 37° C. in 5% CO2. On day 4 of culture, PBMCs were collected, washed twice in RPMI-1640 supplemented with 0.1% BSA (RPMI-BSA), and incubated in RPMI-BSA in upright tissue culture flasks for 4 hours at 37° C. in 5% CO2. Following this ‘starvation,’ a total of 6×10^4 cells in 30 μL RPMI-BSA was transferred into each well of a 384-well plate pre-spotted with peptide or DMSO. The cells were incubated for 30 minutes prior to the addition of IL-23 at a final concentration of 5 ng/ml. The cells were stimulated with cytokine for 30 minutes at 370C in 5% CO2, transferred onto ice for 10 minutes, and lysed. Cell lysates were stored at −80° C. until phosphorylated STAT3 was measured using the phospho-STAT panel kit (Meso Scale Discovery, K15202D).

[2] = target: T1, interleukin-23 receptor (IL-23R); experiment: cell-based or functional assay
[3] = target: T1, interleukin-23 receptor (IL-23R); experiment: cell-based or functional assay; remark: listed apart in the source

IC50, IL23R Reporter Assay [2] [nM]	PBMC pSTAT3 IC50 [3] [pM]	Molecule	IC50 [1] [nM]
		MeCO-r-Abu (1)-N-T-W-K(Ac)-aMeC (1)-AEF-2Nal-THP-E-N-3Pya-Sar-CONH2 [compound 478]	0.015
		MeCO-r-Pen-N-T-7MeW-K(Ac)-Pen-AEF-2Nal-THP-E-N-5MePyridinAla-Sar-CONH2 [compound 345]	0.0076
5	7.6	Ac-[dR][Pen]NT[Trp(7-Me)]K(Ac)[Pen][AEF′][2Nal][THP]EN[3Pal(5-Me)][Sar]-NH2 (disulfide 2-7; reading uncertain; also: printed as MeCO-r-Pen-N-T-7MeW-K(Ac)-Pen-AEF-2Nal-THP-E-N-5MePyridinAla-Sar-CONH2) [Compound 345]	
	15	Ac-[dR][Abu]NTWK(Ac)[αMeC][AEF′][2Nal][THP]ENX[Sar]-NH2 (thioether 2-7; not fully specified (residue 13); printed as MeCO-r-Abu (1)-N-T-W-K(Ac)-aMeC (1)-AEF-2Nal-THP-E-N-3Pya-Sar-CONH2) [Compound 478]	
91	5.5	Ac-[Pen]NT[Trp(7-Me)]K(Ac)[Pen][AEF(G)][2Nal][THP]EN[3Pal][Sar]-NH2 (disulfide 1-6; reading uncertain; also: printed as MeCO-Pen-N-T-7MeW-K(Ac)-Pen-AEF(G)-2Nal-THP-E-N-3Pya-Sar-CONH2) [Compound 477]	
